Starred links: 1 amine or outer side, 2 acyl side, 3 side chain; linkers in the order of their positions; H or OH if unused. Positions of bridges follow the written chain, without caps; N, C: chain ends. Non-standard residues stand in square brackets, D forms with d. Groups on a side chain read outwards from the residue. Primed or numbered codes have the meaning given here. ξ: configuration not given here. *: point of attachment. APAc″ = 2-(4-(amino)piperidin-1-yl)acetic acid, NC1CCN(CC(=O)*)CC1; DOTA = O=C(O)CN1CCN(CC(=O)O)CCN(CC(=O)*)CCN(CC(=O)O)CC1; Trp(5-Cl) = N[C@@H](Cc1c[nH]c2ccc(Cl)cc12)C(=O)O; ξTrp(5-Me) = Cc1ccc2[nH]cc(CC(N)C(=O)O)c2c1; Ttds(3) = NCCCOCCOCCOCCCNC(=O)CCC(=O)*; 1Nal = N[C@@H](Cc1cccc2ccccc12)C(=O)O; mXylylene = c1cc(C[*:1])cc(C[*:2])c1; Bta = N[C@@H](Cc1csc2ccccc12)C(=O)O; Hydrocinnamoyl = O=C(CCc1ccccc1)*; NHMe2Nph = not defined here; Isovaleryl = CC(C)CC(=O)*; NMeS = CN[C@@H](CO)C(=O)O; 2Quyl = not defined here; AGLU′ = not defined here; APAc = not defined here; Apr = not defined here; Bn = c1ccc(C*)cc1; Sar = CNCC(=O)O
B1: 3BP-3890 (peptide)
peptide: Ac-VYCE[dP]KWLEWSC-NH2
modifications: linker 3-12 via mXylylene; lactam 6-9
SMILES: CC(=O)N[C@H](C(=O)N[C@@H](Cc1ccc(O)cc1)C(=O)N[C@H]1CSCc2cccc(c2)CSC[C@@H](C(N)=O)NC(=O)[C@H](CO)NC(=O)[C@H](Cc2c[nH]c3ccccc23)NC(=O)[C@@H]2CCC(=O)NCCCC[C@H](NC(=O)[C@H]3CCCN3C(=O)[C@H](CCC(=O)O)NC1=O)C(=O)N[C@@H](Cc1c[nH]c3ccccc13)C(=O)N[C@@H](CC(C)C)C(=O)N2)C(C)C
B2: 3BP-3957 (peptide)
peptide: Ac-VYCE[dP]KWL[dE]WSC-NH2
modifications: linker 3-12 via mXylylene; lactam 6-9
SMILES: CC(=O)N[C@H](C(=O)N[C@@H](Cc1ccc(O)cc1)C(=O)N[C@H]1CSCc2cccc(c2)CSC[C@@H](C(N)=O)NC(=O)[C@H](CO)NC(=O)[C@H](Cc2c[nH]c3ccccc23)NC(=O)[C@H]2CCC(=O)NCCCC[C@H](NC(=O)[C@H]3CCCN3C(=O)[C@H](CCC(=O)O)NC1=O)C(=O)N[C@@H](Cc1c[nH]c3ccccc13)C(=O)N[C@@H](CC(C)C)C(=O)N2)C(C)C
B3: 3BP-3905 (peptide)
peptide: {DOTA-APAc}-VYCE[dP]DWLTWSC-NH2
modifications: linker 3-12 via mXylylene; reading uncertain; also: ['indium complexed by DOTA']
B4: 3BP-3289 (peptide)
peptide: Ac-VYCE[Sar]D[Trp(5-Cl)]LTWQC-NH2
modifications: linker 3-12 via mXylylene
SMILES: CC(=O)N[C@H](C(=O)N[C@@H](Cc1ccc(O)cc1)C(=O)N[C@H]1CSCc2cccc(c2)CSC[C@@H](C(N)=O)NC(=O)[C@H](CCC(N)=O)NC(=O)[C@H](Cc2c[nH]c3ccccc23)NC(=O)[C@H]([C@@H](C)O)NC(=O)[C@H](CC(C)C)NC(=O)[C@H](Cc2c[nH]c3ccc(Cl)cc23)NC(=O)[C@H](CC(=O)O)NC(=O)CN(C)C(=O)[C@H](CCC(=O)O)NC1=O)C(C)C
notes: also called Ac-Val-Tyr-[Cys(3MeBn)-Glu-Nmg-Asp-5Clw-Leu-Thr-Trp-Gln-Cys]-NH2
B5: 3BP-3110 (peptide)
peptide: Hydrocinnamoyl-VYCEGDWLTWQC-NH2
modifications: linker 3-12 via mXylylene
SMILES: CC(C)C[C@@H]1NC(=O)[C@H](Cc2c[nH]c3ccccc23)NC(=O)[C@H](CC(=O)O)NC(=O)CNC(=O)[C@H](CCC(=O)O)NC(=O)[C@@H](NC(=O)[C@H](Cc2ccc(O)cc2)NC(=O)[C@@H](NC(=O)CCc2ccccc2)C(C)C)CSCc2cccc(c2)CSC[C@@H](C(N)=O)NC(=O)[C@H](CCC(N)=O)NC(=O)[C@H](Cc2c[nH]c3ccccc23)NC(=O)[C@H]([C@@H](C)O)NC1=O
B6: 3BP-3311 (peptide)
peptide: Ac-VYCE[Sar]D[Bta]LTWQC-NH2
modifications: linker 3-12 via mXylylene
SMILES: CC(=O)N[C@H](C(=O)N[C@@H](Cc1ccc(O)cc1)C(=O)N[C@H]1CSCc2cccc(c2)CSC[C@@H](C(N)=O)NC(=O)[C@H](CCC(N)=O)NC(=O)[C@H](Cc2c[nH]c3ccccc23)NC(=O)[C@H]([C@@H](C)O)NC(=O)[C@H](CC(C)C)NC(=O)[C@H](Cc2csc3ccccc23)NC(=O)[C@H](CC(=O)O)NC(=O)CN(C)C(=O)[C@H](CCC(=O)O)NC1=O)C(C)C
notes: also called Ac-Val-Tyr-[Cys(3MeBn)-Glu-Nmg-Asp-Bta-Leu-Thr-Trp-Gln-Cys]-NH2
B7: 3BP-3111 (peptide)
peptide: Isovaleryl-VYCEGDWLTWQC-NH2
modifications: linker 3-12 via mXylylene
SMILES: CC(C)CC(=O)N[C@H](C(=O)N[C@@H](Cc1ccc(O)cc1)C(=O)N[C@H]1CSCc2cccc(c2)CSC[C@@H](C(N)=O)NC(=O)[C@H](CCC(N)=O)NC(=O)[C@H](Cc2c[nH]c3ccccc23)NC(=O)[C@H]([C@@H](C)O)NC(=O)[C@H](CC(C)C)NC(=O)[C@H](Cc2c[nH]c3ccccc23)NC(=O)[C@H](CC(=O)O)NC(=O)CNC(=O)[C@H](CCC(=O)O)NC1=O)C(C)C
B8: 3BP-3314 (peptide)
peptide: Ac-VYCE[Sar]D[1Nal]LTWQC-NH2
modifications: linker 3-12 via mXylylene
SMILES: CC(=O)N[C@H](C(=O)N[C@@H](Cc1ccc(O)cc1)C(=O)N[C@H]1CSCc2cccc(c2)CSC[C@@H](C(N)=O)NC(=O)[C@H](CCC(N)=O)NC(=O)[C@H](Cc2c[nH]c3ccccc23)NC(=O)[C@H]([C@@H](C)O)NC(=O)[C@H](CC(C)C)NC(=O)[C@H](Cc2cccc3ccccc23)NC(=O)[C@H](CC(=O)O)NC(=O)CN(C)C(=O)[C@H](CCC(=O)O)NC1=O)C(C)C
notes: also called Ac-Val-Tyr-[Cys(3MeBn)-Glu-Nmg-Asp-1Ni-Leu-Thr-Trp-Gln-Cys]-NH2
B9: 3BP-3290 (peptide)
peptide: Ac-VYCE[Sar]D[ξTrp(5-Me)]LTWQC-NH2
modifications: linker 3-12 via mXylylene; not fully specified; also: position 7 is DL-5-methyltryptophan, configuration not given here
notes: also called Ac-Val-Tyr-[Cys(3MeBn)-Glu-Nmg-Asp-Egc-Leu-Thr-Trp-Gln-Cys]-NH2
B10: 3BP-3271 (peptide)
peptide: {DOTA-Ttds(3)}-VYCE[Sar]DWLTWQC-NH2
modifications: linker 3-12 via mXylylene
notes: also called DOTA-Ttds-Val-Tyr-[Cys(3MeBn)-Glu-Nmg-Asp-Trp-Leu-Thr-Trp-Gln-Cys]-NH2

Target: human carbonic anhydrase 9 (CAIX) (human, UniProt Q16790 38-459)
Assay: FACS competition on HT-29 cells, competitor tracer 3BP-2776; category A = pIC50 >8.0
Description: CAIX-expressing human HT-29 colorectal cancer cells (DSMZ, RRID: CVCL_0320) were cultured in McCoys's 5A modified medium (Biochrom, #F1015) including 10% fetal calf serum (FCS), 2 mM L-glutamine, 100 U/ml penicillin and 100 μg/mL streptomycin. Cells were detached with Accutase (Biolegend, #423201) and washed in FACS buffer (PBS including 1% FCS). Cells were diluted in FACS buffer to a final concentration of 500.000 cells per ml. 200 μL of the cell suspension were transferred to a u-shaped non-binding 96-well plate (Greiner) and cells were washed in ice-cold FACS buffer.
When biotinylated compounds were used an additional incubation step with 1 μg/mL APC-Streptavidin (Miltenyi; #130-106-791) in 50 μL FACS buffer for 30 minutes on ice was performed.
Cells were washed twice with ice-cold FACS buffer and analyzed in an Attune NxT flow cytometer (Thermo Fisher). Median fluorescence intensities (MFI) of the APC/Cy5-channel were calculated by Attune NxT software.

pIC50, > 8 pic50:
Ac-VFCE[dP]DWLTWE([Apr-DOTA])C-NH2 (linker 3-12 via mXylylene; reading uncertain) [3BP-3874]
{DOTA-APAc}-VSCE[dP]DWLTWSC-NH2 (linker 3-12 via mXylylene; reading uncertain) [3BP-4105]
{DOTA-APAc}-VYCE[dP]DC(Bn)LTWSC-NH2 (linker 3-12 via mXylylene; not fully specified; reading uncertain) [3BP-4130]
{DOTA-APAc}-VYC[NMeS][dP]DWLTWSC-NH2 (linker 3-12 via mXylylene; reading uncertain) [3BP-4108]
B1
{DOTA-APAc}-VYCE[dP]DYLTWSC-NH2 (linker 3-12 via mXylylene; not fully specified; reading uncertain) [3BP-4136]
{DOTA-APAc}-VYCE[dP]NWLTWSC-NH2 (linker 3-12 via mXylylene; reading uncertain) [3BP-4103]
{DOTA-APAc}-VYCE[dP]Y(Bn)WLTWSC-NH2 (linker 3-12 via mXylylene; not fully specified; reading uncertain) [3BP-4127]
{DOTA-APAc″}-VYCE[dP]E(NHMe2Nph)WLTWSC-NH2 (linker 3-12 via mXylylene; reading uncertain) [3BP-4215]
{DOTA-APAc}-VYCE[dP]DWLE(AGLU′)WSC-NH2 (linker 3-12 via mXylylene; reading uncertain) [3BP-4121]
{DOTA-APAc}-VYCE[dP]DWLTWEC-NH2 (linker 3-12 via mXylylene; not fully specified (residue 11); reading uncertain) [3BP-4122]
{DOTA-APAc}-VYCE[dP]C(2Quyl)WLTWSC-NH2 (linker 3-12 via mXylylene; not fully specified; reading uncertain) [3BP-4129]
{DOTA-APAc}-VYCQ[dP]DWLTWSC-NH2 (linker 3-12 via mXylylene; reading uncertain) [3BP-4104]
{DOTA-APAc}-VYCE[dE](AGLU′)DWLTWSC-NH2 (linker 3-12 via mXylylene; reading uncertain) [3BP-4119]
{DOTA-APAc}-VE(AGLU′)CE[dP]DWLTWSC-NH2 (linker 3-12 via mXylylene; reading uncertain) [3BP-4112]
B2
{DOTA-APAc}-VYCE[dP]C(Bn)WLTWSC-NH2 (linker 3-12 via mXylylene; not fully specified; reading uncertain) [3BP-4128]
B3

Target: human carbonic anhydrase 9 (CAIX) (human, UniProt Q16790 38-459)
Assay: FACS competition on HT-29 cells against tracer 3BP-2776; pIC50 category A = pIC50 >8.0

pIC50, > 8 pic50:
B4
B5
B6
B7
B8
B9
B10
